Source: US20230295316A1 (FRED HUTCHINSON CANCER CENTER, published 2023)
One block for each binder: values may come before it.

Legend:
[1] = molecular target: T1, human interleukin-3 (IL-3) receptor alpha-chain (CD123), on cells (human, UniProt P26951 19-378); assay: flow cytometry (APC-A), 30 min at 4 °C; bound fusion protein detected with APC-anti-hFc (tubes 1-5) or through Y-DOTA-biotin and APC-SA (tubes 6-8); RS4;11 cells expressing human CD123
T1 construct: whole, on cells; also called human CD123
Protocol: FIG. 24. Flow cytometry-based binding assay of monomeric anti-CD123 BsAb derived from 10C4 binding sequences. 0.4×10⁶ CD123-negative parental RS4;11 cells (RSA) or RSA cells engineered to express human CD123 (RS4-CD123) were incubated with or without CD123 bispecific fusion protein from purification (FP) or crude supernatant (load), with or without Y-DOTA-biotin. After incubating for 30 min at 4° C. cells were washed twice and assayed by flow cytometry with fluorophore-labeled anti-human Fc receptor secondary Ab (tubes 1-5) to detect bound bispecific fusion protein, or fluorophore labeled […] secondary Ab (tubes 6-8) to detect functional capacity of bispecific fusion protein to bind both CD123+ target cells and the radioligand, Y-DOTA-biotin.

[2] = molecular target: T1, human interleukin-3 (IL-3) receptor …; assay: flow cytometry (APC-A), mAb at 2 µg/mL + labeled secondary antibody; RS4;11 transduced with human CD123, TF-1, KG-1, MOLM-13 cells
Protocol: FIG. 1. Parental human RS4;11 cells (endogenously lacking CD123), RS4;11 cells transduced with human CD123, CD123-expressing human AML cells lines (TF-1, KG-1, MOLM-13), and MOLM-13 cells with CRISPR/Cas9-mediated knockout of the CD123 locus (CD123^KO) were left untreated or treated with murine anti-human CD123 mAbs (10C4, 5G6, 11F11, 1H8; used at 2 µg/mL) or a commercial anti-CD123 mAbs (7G3, used at 2 µg/mL) and a labeled secondary antibody before flow cytometric analysis.

[3] = molecular target: T1, human interleukin-3 (IL-3) receptor …; assay: flow cytometry (PE-A), recombinant human IgG4 mAb + labeled secondary antibody, parental MOLM-13 cells against MOLM-13 CD123KO
From the text: FIGS. 20A-20B. MOLM-13 cells with CRISPR/Cas9-mediated knockout of the CD123 locus (MOLM-13^CD123KO), parental MOLM-13 cells (endogenously expressing CD123) (FIG. 20A), ML-1 cells with CRISPR/Cas9-mediated knockout of the CD123 locus (ML-1^CD123KO), and ML-1^CD123KO cells in which human CD123 was re-expressed via lentivirus-mediated gene expression (FIG. 20B) were left untreated or treated with recombinant human anti-human CD123 mAbs (clones 1B5, 1D9, 1E3, 1F2, and 1G5; all human IgG4 frameworks) and a labeled secondary antibody before flow cytometric analysis.

binding result [1]: binds
B1: 10C4-Fc-C825 monomeric construct (monomeric anti-CD123 x anti-Y-DOTA bispecific antibody) (bispecific antibody, human IgG1)
chain: DIVMSQSPSSLAVSAGEKVTMSCKSSQSLLSSGTRKNYLAWYQQKPGQSPKLLIYWASTRESGVPDRFTGSGSGTDFTLTISSVQAEDLAVYYCKQSYILFTFGSGTKLEIKGGGSGGGGSGGGGSGGGGSSQVQLKESGPGLVAPSQNLSITCTVSGFSLTTYDINWIRQPPGKGLEWLGVIWTGGGTNYNSAFMSRLSISKDNSKSQVFLKMNSLQTDDTAMYYCVRGDTYHYALDFWGQGTSVTVSSLEPKSSDKTHTSPPSPAPELLGGPSVFLFPPKPKDTLMISRTPEVTCVVVDVSHEDPEVKFNWYVDGVEVHNAKTKPREEQYNSTYRVVSVLTVLHQDWLNGKEYKCKVSNKALPAPIEKTISKAKGQPREPQVYTLPPSRDELTKNQVSLTCRVKGFYPSDIAVEWESNGQPENNYKTTPPVLDSDGSFHLESKLTVDKSRWQQGNVFSCSVMHEGLHNHYTQKSLSLSPGKVDGASSHVNVSSPSVQDIHVKLQESGPGLVQPSQSLSLTCTVSGFSLTDYGVHWVRQSPGKGLEWLGVIWSGGGTAYNTALISRLNIYRDNSKNQVFLEMNSLQAEDTAMYYCARRGSYPYNYFDAWGCGTTVTVSSGGGGSGGGGSGGGGSQAVVIQESALTTPPGETVTLTCGSSTGAVTASNYANWVQEKPDHCFTGLIGGHNNRPPGVPARFSGSLIGDKAALTIAGTQTEDEAIYFCALWYSDHWVIGGGTRLTVLG
notes: Single chain: 10C4 VL, linker 1, 10C4 VH, hinge and human IgG1 Fc (monomerising substitutions), linker 2, C825 VH, linker 3, C825 VL; also called monomeric 10C4 BsAb; monomeric anti-CD123 BsAb

binding result [2]: binds
B2: 123-11F11 (murine anti-CD123 antibody, IgG1 isotype, Kappa Light Chain) (antibody, V domains shown)
VH: EVTLVESGGGLEQPGGSLSLSCAASGFTFTDYYMSWVRQPPGKALEWLALIRNKANGYTTEYSASVKGRFTISRDNSQSILYLQMNALRAEDSATYYCARQVRNYYGYEEDALDYWGQGTSVTVSS
VL: DIVLTQSPASLAVSLGQRATISCRASESLDFYGNSFMHWYQQKSGQPPKLLISRASNLESGIPPRFSGSGSRTDFTLTIDPVEADDVATYYCQQSYEDPYTFGGGTKLEIK
notes: murine IgG1, kappa

binding result [3]: binds
B3: 123-ATX1F2, fully human recombinant antibody, human IgG4 framework (antibody)
heavy: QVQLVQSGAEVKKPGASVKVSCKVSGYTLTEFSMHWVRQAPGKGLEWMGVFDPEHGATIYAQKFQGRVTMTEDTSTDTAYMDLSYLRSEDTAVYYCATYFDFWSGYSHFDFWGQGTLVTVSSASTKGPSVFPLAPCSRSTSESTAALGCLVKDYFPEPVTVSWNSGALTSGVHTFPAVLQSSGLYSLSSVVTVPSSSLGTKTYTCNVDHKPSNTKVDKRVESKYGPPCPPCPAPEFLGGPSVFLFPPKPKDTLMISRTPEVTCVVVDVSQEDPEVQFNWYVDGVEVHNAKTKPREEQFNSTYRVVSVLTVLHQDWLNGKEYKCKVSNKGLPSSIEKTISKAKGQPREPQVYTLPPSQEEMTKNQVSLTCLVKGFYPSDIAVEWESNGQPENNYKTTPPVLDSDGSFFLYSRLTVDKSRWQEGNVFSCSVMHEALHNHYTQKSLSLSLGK
light: DIQMTQSPSSLSASVGDRVTITCRASQGIRNDLGWYQQRPGKAPKRLIYAASSLQSGVPSRFSGSGSGTEFTLAISSLQPEDFATYSCLQHNSYPWTFGQGTKVEIKRTVAAPSVFIFPPSDEQLKSGTASVVCLLNNFYPREAKVQWKVDNALQSGNSQESVTEQDSKDSTYSLSSTLTLSKADYEKHKVYACEVTHQGLSSPVTKSFNRGEC
notes: also called 1F2 (human IgG4)
